Measurements reported in patent CN114395035A (JIANGSU MICKEE MEDICAL TECH CO LTD; INST OF MICROBIOLOGY OF …, dated 2022).

Target: SARS-CoV-2 Prototype RBD蛋白 (野生型新型冠状病毒刺突蛋白受体结合域段RBD蛋白) (SARS-CoV-2, UniProt P0DTC2 319-541)
Assay: SPR (Biacore 8K)

| Binder | Kd |
| --- | --- |
| IMCAS-364抗体 (全抗IgG1) (antibody, V domains shown, also called 金标抗体 (胶体金标记)) VH: QVQLQESGGGVVQPGRSLRLSCAASGFTFSRYGMHWVRQAPGKGLEWVAVIWYDGSNKYYADSVKGRFTISRDNSKNTLYLQMNSLRADDTAVYYCAKQEGTYCSGGSCYSGLDYWGQGTLVTVSS VL: not shown | 1.04 nM |
| IMCAS-123抗体 (全抗IgG1) (antibody, V domains shown, also called T1线抗体) VH: not shown VL: DIQMTQSPSSVSASVGDSVTITCRASQGISRWLAWYQQRPGKAPKLLIYAAGNLETGVPSRFSGSGSGTDFTLTISDLQAEDFATYYCQQADSFPLTFGGGTKVDIKR | 0.18 nM |
